{"source": "paper PMC5890266", "about": "“Targeting the polyadenylation factor EhCFIm25 with RNA aptamers controls survival in Entamoeba histolytica”", "target": "T1, EhCFIm25 wild type (Entamoeba histolytica, UniProt C4M2T1 1-255)", "T1 sequence": "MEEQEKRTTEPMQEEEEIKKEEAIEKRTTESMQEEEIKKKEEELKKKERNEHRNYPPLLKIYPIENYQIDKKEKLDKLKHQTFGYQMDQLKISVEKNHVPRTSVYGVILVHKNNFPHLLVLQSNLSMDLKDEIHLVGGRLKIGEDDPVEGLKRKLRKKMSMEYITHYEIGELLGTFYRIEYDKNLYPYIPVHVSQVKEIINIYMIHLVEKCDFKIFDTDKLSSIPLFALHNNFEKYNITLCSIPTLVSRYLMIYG", "test": "EMSA; REMSA: RNA probe (100 ng/ul) with 20 ug EhCFIm25 or 50 ug extract, room temperature 20 min, 10% non-denaturing PAGE, LightShift Chemiluminescent RNA EMSA Kit; buffer, salt and pH not stated", "conditions": "protein: recombinant, tags: 6xHis (pRSET vector), chain copies: 2", "data": [{"binder": "Ehthio-3'UTR (ssRNA) RNA: AAGGGUAGGAAAAAUUGAAACAUUAAAAGAUUUUCCUUCUUUUAAAGACAGAGUAAAAGAACCAUAUGUUGCUCCAAAAUAUGAAGAAGAAGAACUUUAAAUAAUAACUUUUUCAAGAACAAAAAUUAAUAACAAAUUUAUUUUAUUUGAUUUUACAAUUCUUGUUAUUAUAUGUUGAUAUUUAUUUAAAAUACUCUUUCUUUUAAUUUUUGUUUUUAUUAACAAUAUAUUUUAUAUUAAAUAAAGUUUAAUGAAAAAAAAGUAUUAAAAAGUUGUAAUAAACCUAAUUAAUAAAUGUUU", "values": [{"measurement": "binding result", "setting": "label: biotin (Biotin RNA Labeling Mix)", "result": "binds"}]}, {"binder": "AAUAAUACGACUCACUAUAGACGAAAUGGUUGUCAACGACGAUUA (ssRNA)", "note": "[GUUG-probe]", "values": [{"measurement": "binding result", "setting": "label: biotin as probe", "result": "binds"}]}, {"binder": "AAUAAUACGACUCACUAUAGACGAAAUGCAACUCAACGACGAUUA (ssRNA)", "note": "[CAAC-probe]", "values": [{"measurement": "binding result", "setting": "label: biotin", "result": "no binding"}]}]}
